Several values for one entry are separate records, joined by “and”; a condition that tells them apart may be missing. Equal values may be shown once. Read-outs that look alike come from different tables or passages of the source. Starred links: 1 amine or outer side, 2 acyl side, 3 side chain; linkers in the order of their positions; H or OH if unused. Non-standard residues stand in square brackets, D forms with d. Residues, ends and D or L forms follow the SMILES beside them. ξ: configuration not given here. *: point of attachment. GluureaLys(ε-3-ClBenzyl) = O=C(O)CC[C@H](NC(=O)N[C@@H](CCCCN(Cc1cccc(Cl)c1)*)C(=O)O)C(=O)O; Dolaproine = CO[C@@H]([C@@H]1CCCN1)[C@@H](C)C(=O)O; Dil = CC[C@H](C)[C@H](NC)[C@@H](CC(=O)O)OC; X1 = O=C(CCCc1cn(CCCN[*:1])nn1)[*:2]; PABC = O=C(OCc1ccc(N[*:1])cc1)[*:2]; X2 = C[C@@H](N*)[C@@H](O)c1ccccc1; Cit = NC(=O)NCCC[C@H](N)C(=O)O; Suc = O=C(CCC(=O)[*:2])[*:1]; NMeV = CN[C@H](C(=O)O)C(C)C; ξV = CC(C)C(N)C(=O)O; Ahx = NCCCCCC(=O)O
Key:
[1] = Pharmacokinetics in plasma of rabbits after a single injection; assay type: in vivo; on T1/2: dose 0.81 mg/kg; on Vd: dose 0.81 mg/kg
Text: The pharmacokinetics study for the Conjugate (I) product in plasma of rabbits and rats after a single injection.
The leporids and rodents are the standard targets for preclinical studies of potential drug products as well as determining the pharmacokinetic parameters. The rabbits and rats are recommended as test systems to study pharmacokinetic properties of pharmaceutical products by the regulatory documents (FIG. 7, FIG. 8).
[…] The pharmacokinetic data, determined from this number of test animals, are sufficient to obtain the primary quantitative characteristics of test product distribution and elimination and the calculation of descriptive statistics parameters.
• 1. Conjugate (1) • 2. Solubilizer Pluronic F127—in the amount, five-fold greater than the conjugate amount by weight. • 3, Diluent—Haemodes infusion solution. • Dimethyl sulfoxide—in the amount of 5% of the prepared volume. • Rabbit experiment (see Tables 5, 6), • Rat experiment (see Tables 7, 8).

[2] = Chronic toxicity study, intravenous once every 3 weeks, rats; assay type: in vivo; conditions: for Necropsy / Signs of intoxication: male rats
Text: Chronic toxicity study of Conjugate (1) product on Rats and rabbits.
• 1. Conjugate (I). • 2. Solubilizer Pluronic F127—in the amount, five-fold greater than the conjugate amount by weight. • 3. Diluent—Haemodes infusion solution. • 4. Dimethyl sulfoxide—in the amount of 5% of the prepared volume.
A 1 00 white ° inbred mature male rats about 2 months old with a body weight of 190-210 g and 60 sexually mature male rabbits of the Soviet Chinchilla breed about 2 months old with a body weight of […] were involved in the experiment.
The study design determined the intravenous administration of the test drugs once every 3 weeks for 3 months (a total of 4 injections) for the experiment of chronic toxicity determination. The local irritant effect of the products within intravenous administration will be studied together with the chronic toxicity study.
Each animal received the intravenous injection of the test drug or the reference drug in a volume not exceeding the acceptable volume for a single injection of 2 mL for rats and 20 mL for rabbits. The products were replaced with a Pluronic solution with DMSO in Haemodes in the control group of animals. The duration of observation for laboratory animals was 4 weeks (intermediate stage).
Apparent signs of intoxication were evaluated daily. During the study, integral indicators of animal health were recorded (see Tables 15. 16, 17).

[3] = male, Soviet Chinchilla, rabbit, plasma, rabbits N=6, read-out: Concentration in blood plasma, Median
[4] = male, Soviet Chinchilla, rabbit, plasma, rabbits N=6, read-out: Concentration in blood plasma, Geometr. mean
[5] = male, Soviet Chinchilla, rabbit, plasma, rabbits N=6, read-out: Concentration in blood plasma, Mean value
[6] = male, Soviet Chinchilla, rabbit, plasma, rabbits, read-out: Concentration in blood plasma (individual animals)
[7] = group 2, 150 μg/kg intravenously 1 time in 3 weeks
[8] = group 3, 188 μg/kg intravenously 1 time in 3 weeks

`CC[C@H](C)[C@@H]([C@@H](CC(=O)N1CCC[C@H]1[C@H](OC)[C@@H](C)C(=O)N[C@H](C)[C@@H](O)c1ccccc1)OC)N(C)C(=O)[C@@H](NC(=O)[C@H](C(C)C)N(C)C(=O)OCc1ccc(NC(=O)[C@H](CCCNC(N)=O)NC(=O)C(NC(=O)CCCc2cn(CCCNC(=O)[C@H](Cc3ccc(O)cc3)NC(=O)[C@H](Cc3ccccc3)NC(=O)CCC(=O)NCCCCCC(=O)N(CCCC[C@H](NC(=O)N[C@@H](CCC(=O)O)C(=O)O)C(=O)O)Cc3cccc(Cl)c3)nn2)C(C)C)cc1)C(C)C` (stereo partly drawn) [Conjugate (I)] ({GluureaLys(ε-3-ClBenzyl)-Ahx-Suc}-FY[X1][ξV][Cit][PABC][NMeV]V[Dil][Dolaproine]-X2) gave a level at 6 h [1, 3] of 1620 ng/mL, a level at 8 h ([1]; male, Soviet Chinchilla, rabbit, plasma, rabbits N=6, 8.00 hour, read-out: Concentration in blood plasma, Geometr. mean) of 1180 ng/mL and a level at 8 h ([1]; male, Soviet Chinchilla, rabbit, plasma, rabbits N=6, 8.00 hour, read-out: Concentration in blood plasma, Mean value) of 1210 ng/mL. For the same compound, the level at 10 h [1, 4] was 857 ng/mL, the level at 10 h [1, 5] was 878 ng/mL and the level at 10 h [1, 3] was 892 ng/mL. It also gave a level at 12 h [1, 4] of 631 ng/mL, a level at 12 h [1, 5] of 657 ng/mL and a level at 12 h [1, 3] of 558 ng/mL. The C0 ([1]; male, Soviet Chinchilla, rabbit, plasma, rabbits N=6, read-out: C0, Geometr. mean) was 10900 ng/mL, the C0 ([1]; male, Soviet Chinchilla, rabbit, plasma, rabbits N=6, read-out: C0, Mean value) was 11100 ng/mL and the clearance ([1]; male, Soviet Chinchilla, rabbit, plasma, rabbits N=6, read-out: CI, Geometr. mean (converted)) was 0.389 mL/min/kg. The clearance ([1]; male, Soviet Chinchilla, rabbit, plasma, rabbits N=6, read-out: CI, Mean value (converted)) was 0.394 mL/min/kg, the clearance ([1]; male, Soviet Chinchilla, rabbit, plasma, rabbits N=6, read-out: CI, Median (converted)) was 0.374 mL/min/kg and the level at 0.08 h ([1]; male, Soviet Chinchilla, rabbit, plasma, rabbits, 0.08 hour, read-out: Concentration in blood plasma (individual animals)) was 9580 ng/mL. It also gave a level at 0.25 h ([1]; male, Soviet Chinchilla, rabbit, plasma, rabbits, 0.25 hour, read-out: Concentration in blood plasma (individual animals)) of 10700 ng/mL, a level at 0.5 h ([1]; male, Soviet Chinchilla, rabbit, plasma, rabbits, 0.50 hour, read-out: Concentration in blood plasma (individual animals)) of 7250 ng/mL and a level at 1 h ([1]; male, Soviet Chinchilla, rabbit, plasma, rabbits, 1.00 hour, read-out: Concentration in blood plasma (individual animals)) of 5100 ng/mL. For the same compound, the level at 1.5 h ([1]; male, Soviet Chinchilla, rabbit, plasma, rabbits, 1.50 hour, read-out: Concentration in blood plasma (individual animals)) was 4850 ng/mL, the level at 2 h ([1]; male, Soviet Chinchilla, rabbit, plasma, rabbits, 2.00 hour, read-out: Concentration in blood plasma (individual animals)) was 3840 ng/mL and the level at 6 h [1, 6] was 1310 ng/mL. For the same compound, the level at 8 h ([1]; male, Soviet Chinchilla, rabbit, plasma, rabbits, 8.00 hour, read-out: Concentration in blood plasma (individual animals)) was 1360 ng/mL, the level at 10 h [1, 6] was 859 ng/mL and the “AUCt-∞/AUC0-∞, Geometr. mean” value ([1]; rabbits N=6) was 11.364%. The “AUCt-∞/AUC0-∞, Mean value” ([1]; rabbits N=6) was 12.690%, the “AUCt-∞/AUC0-∞, Median” value ([1]; rabbits N=6) was 13.29% and the “C0, Median” value ([1]; rabbits N=6) was 9.88 µg/mL. The “Kel, Geometr. mean” value ([1]; rabbits N=6) was 0.160 h⁻¹, the “Kel, Mean value” ([1]; rabbits N=6) was 0.170 h⁻¹ and the “Kel, Median” value ([1]; rabbits N=6) was 0.153 h⁻¹. For the same compound, the “Concentration in blood plasma, Geometr. mean” value ([1]; rabbits N=6, 1.50 hour) was 5.046 µg/mL, the “Concentration in blood plasma, Median” value ([1]; rabbits N=6, 8.00 hour) was 1.195 µg/mL and the “Concentration in blood plasma (individual animals)” value ([1]; rabbits, 0.08 hour) was 9.617 µg/mL. For the same compound, the “Concentration in blood plasma (individual animals)” value ([1]; rabbits, 2.00 hour) was 3.781 µg/mL, the “Concentration in blood plasma (individual animals)” value ([1]; rabbits, 3.00 hour) was 3.693 µg/mL and the AUC0-t ([1]; rabbits, individual animals) was 39.504 µg·h/mL and 21.886 µg·h/mL and 33.617 µg·h/mL and 28.972 µg·h/mL and 28.872 µg·h/mL. The “AUC0-∞” value ([1]; rabbits, individual animals) was 42.004 µg·h/mL and 26.025 µg·h/mL and 39.814 µg·h/mL and 36.928 µg·h/mL and 30.768 µg·h/mL, the “AUCt-∞/AUC0-∞” value ([1]; rabbits, individual animals) was 11.01% and 5.95% and 15.90% and 15.57% and 21.54% and 6.16% and the C0 ([1]; rabbits, individual animals) was 17049 ng/mL and 9815 ng/mL and 9947 ng/mL and 9624 ng/mL and 9582 ng/mL. For the same compound, the CI ([1]; rabbits, individual animals) was 22.96 mL/h/kg and 19.28 mL/h/kg and 31.12 mL/h/kg and 20.34 mL/h/kg and 21.93 mL/h/kg and 26.33 mL/h/kg, the Kel ([1]; rabbits, individual animals) was 0.137 h⁻¹ and 0.234 h⁻¹ and 0.123 h⁻¹ and 0.168 h⁻¹ and 0.099 h⁻¹ and 0.256 h⁻¹ and the MRT0-t ([1]; rabbits, individual animals) was 3.14 h and 3.29 h and 3.88 h and 3.74 h and 3.46 h. For the same compound, the T1/2 ([1]; rabbits, individual animals) was 5.06 h and 2.97 h and 5.63 h and 4.12 h and 7.01 h and 2.70 h, the Vd ([1]; rabbits, individual animals) was 167.66 mL/kg and 82.55 mL/kg and 252.60 mL/kg and 121.01 mL/kg and 221.74 mL/kg and 102.70 mL/kg and the Necropsy [2, 7] was “None”. The Signs of intoxication [2, 7] was “No signs of intoxication”, the Necropsy [2, 8] was “None” and the Signs of intoxication [2, 8] was “No signs of intoxication”. The Necropsy ([2]; group 4, 225 μg/kg intravenously 1 time in 3 weeks) was “None”, the Signs of intoxication ([2]; group 4, 225 μg/kg, 2-3 days after the first administration, all animals, finishing on days 6-7) was “group developed diarrhea finishing on” and the Signs of intoxication ([2]; group 4, 225 μg/kg, 2-3 days after the second administration) was “animals showed diarrhea”. For the same compound, the “Main observed toxic effect” value ([2]; rats, chronic) was “decreased body weight gain”, the “Rat excretory system: urine volume” value ([2]; rats, chronic) was “reliable decreased urine volume” and the “Chronic toxicity (overall)” value ([2]; rats, i.v. once every 3 weeks, intermediate stage 4 weeks) was “moderate toxicity”.

Reference: US12454527B2, “Conjugate monomethyl auristatin E to obtain a composition for treatment of prostate cancer” (priority 2019, dated 2025)
